In article PMC4794849:
pKd: −log10 of the molar value.

What was measured:
Assay in all cases: filter binding
Conditions in all cases: Filter binding: 20 mM HEPES-KOH pH 7.5, 1 mM MgCl2, 10 µM TCEP, 5 mM β-mercaptoethanol, 10 µM ZnCl2, 50-500 mM NaCl, 0.2 nM RNA, 25 min, room temperature. …
[1] = system: HIV-2 GagΔp6 (HIV-2 isolate ROD)
[2] = system: HIV-2 NC (NCp8) (HIV-2 isolate ROD)
[3] = system: HIV-2 MA (HIV-2 isolate ROD)

| Substance | pKd [1] | pKd [2] | pKd [3] |
| --- | --- | --- | --- |
| HIV-2 PBS RNA | 6.50 | 5.69 | 5.68 |
| HIV-2 TARpA RNA | 6.02 | 5.84 | 5.62 |
| HIV-2 Ψ RNA | 6.90 | 6.01 | 5.82 |
